This assay addresses T1, E6APY533A (Homo sapiens, UniProt Q05086, Y556A).
T1 construct: made in house; host or cells: E. coli
T1 sequence (Q05086 1-872 isoform Q05086-3 Y553A): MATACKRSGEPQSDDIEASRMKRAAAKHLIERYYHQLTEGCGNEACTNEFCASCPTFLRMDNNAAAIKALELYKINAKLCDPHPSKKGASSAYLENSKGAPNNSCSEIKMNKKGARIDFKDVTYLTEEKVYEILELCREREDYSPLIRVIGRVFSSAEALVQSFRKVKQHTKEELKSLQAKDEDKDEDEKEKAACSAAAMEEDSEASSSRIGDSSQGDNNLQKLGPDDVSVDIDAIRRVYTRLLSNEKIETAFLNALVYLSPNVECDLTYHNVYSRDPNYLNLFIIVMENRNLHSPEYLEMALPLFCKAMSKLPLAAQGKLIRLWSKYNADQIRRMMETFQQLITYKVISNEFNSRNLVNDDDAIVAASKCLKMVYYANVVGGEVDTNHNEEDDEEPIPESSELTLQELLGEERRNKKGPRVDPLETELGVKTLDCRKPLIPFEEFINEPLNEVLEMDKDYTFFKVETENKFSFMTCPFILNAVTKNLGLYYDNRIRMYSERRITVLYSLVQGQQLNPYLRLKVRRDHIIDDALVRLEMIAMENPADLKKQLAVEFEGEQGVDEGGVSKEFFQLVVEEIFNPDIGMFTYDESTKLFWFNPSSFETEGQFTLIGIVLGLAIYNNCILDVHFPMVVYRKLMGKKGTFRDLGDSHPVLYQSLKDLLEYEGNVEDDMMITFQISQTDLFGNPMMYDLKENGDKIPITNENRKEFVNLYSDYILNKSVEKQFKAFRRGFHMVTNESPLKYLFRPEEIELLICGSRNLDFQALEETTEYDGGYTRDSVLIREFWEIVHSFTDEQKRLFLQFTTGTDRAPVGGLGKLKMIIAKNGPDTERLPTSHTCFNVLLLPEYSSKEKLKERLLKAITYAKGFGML
Kind of assay: E6 rescue of 125I-polyubiquitin chain formation by E6APY533A. The format is biochemical. Conditions: 20 nM E6 protein. How it is done: E6AP-catalyzed ^125I-Ubiquitin Conjugation Assay: The E3 ligase activity of recombinant E6AP ligase was quantitated in kinetic assays under initial velocity conditions (Ronchi et al., (2013) J. Biol. Chem. 288, 10349-10360, Ronchi & Haas (2012) Methods Mol. Biol. 832: 197-218). Rates of E6AP-catalyzed ^125I-polyubiquitin chain formation were measured at 37° C. in incubations of 25-μl final volume containing 50 mM Tris-HCl (pH 7.5), 1 mM ATP, 10 mM MgCl2, 1 mM DTT, 10 mM creatine phosphate, 1 IU of creatine phosphokinase, 5 μM ^125I-ubiquitin (approximately 1.5×10^4 cpm/pmol), 50 nM human Uba1, and the indicated concentrations of UbcH7 and E6AP ligase (Siepmann et al., (2003) J. Biol. Chem. 278: 9448-9457; Baboshina et al., (2001) J. Biol. Chem. 276: 39428-39437). […]
Polyubiquitin chain formation was measured by excising lanes between the top of the resolving gel and the top of the stacker gel, representing anchored and free ^125I-polyubiquitin chains, respectively, and quantitating associated ^125I-ubiquitin by γ-counting. Absolute rates of ^125I-polyubiquitin chain formation were calculated from the associated radioactivity and the corrected specific radioactivity for ^125I-ubiquitin. Datum points represent single assay determinations, and complete data sets were evaluated by non-linear regression analysis using GraFit version 5.0 (Erithicus). […]

B1: E6 protein: recombinant human papilloma virus 16 E6 protein, 158 amino acids (protein)
chain: MHQKRTAMFQDPQERPRKLPQLCTELQTTIHDIILECVYCKQQLLRREVYDFAFRDLCIVYRDGNPYAVCDKCLKFYSKISEYRHYCYSLYGTTLEQQYNKPLCDLLIRCINCQKPLCPEEKQRHLDKKQRFHNIRGRWTGRCMSCCRSSRTRRETQL
Turning to B1, the increase in rate is recorded as 8 fold.

(Values after patent US9725708B2, “Methods of modulating ubiquitin ligase activity” (Board of Supervisors of Louisiana State University and …, priority 2012, dated 2017).)
